This note sets out measurements from patent US20240352452A1.

Common to all, as to test: CasPlay immunoprecipitation of the virome-wide library (245,002 barcodes), z-score of gRNA barcodes
Assay [1] concerns the target dCas9-myc epitope tag control peptide (CasPlay virome library) (Streptococcus pyogenes) (UniProt Q99ZW2).
Assay [2] concerns the target dCas9-HA epitope tag control peptide (CasPlay virome library) (Streptococcus pyogenes) (UniProt Q99ZW2).
The target in assay [3] is dCas9-FLAG peptide fusion (CasPlay library member, C-terminal 6His tag) (Streptococcus pyogenes) (UniProt Q99ZW2).

Regarding anti-myc antibody (Abcam ab9106), the rank of z-score among all peptides of the library in assay [1] is < 0.2%.

Regarding anti-HA antibody (Cell Signaling C29F4), the rank of z-score among all peptides of the library in assay [2] is < 0.2%.

For the substance anti-FLAG M2 antibody, the rank of z-score among all peptides of the library in assay [3] was < 0.2%.
